B1: CCND2 (parent)
chain: YFKCVQKDIQPYMRRMVATWMLEV
B2: TAF7L (parent)
chain: PDVENEVKRLLRSDAEAVSTRWEV

Variants of: B1
Test: protein stability index of a GFP-peptide fusion (GPS, HEK-293T) (PSI 1-6); higher = more stable
Conditions: c terminus: a fixed tail appended
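Also: lentivirally expressed fusions sorted by FACS into six bins by GFP to DsRed ratio, PSI derived from sequencing read proportions per bin multiplied by bin number.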

Protein stability index of substitutions, site by site:
D8: Y 3.53; T 2.37; C 2.87; N 2.16; W 2.03; G 3.98; I 2.58; K 2.94; H 2.21; L 2.05; P 3.13; E 2.37; S 3.28
K7: I 3.33; P 2.48; G 2.97; T 3.22; M 2.53; W 2.12; L 2.56; R 2.69; V 3.05; Y 2.54; E 4.8; H 4.29; D 1.91; Q 2.1; F 1.98; N 2.66; S 3.21
K3: L 2.71; W 2.44; Y 3.04; S 3.75; H 3.13; E 3.31; M 2.96; Q 2.12; I 2.78; P 2.33; N 2.9; A 2.64; T 3.31; V 3.12; D 3.48; C 2.89; G 1.86
I9: C 2.51; G 3.25; D 2.71; P 3.18; M 3.79; F 2.47; K 1.52; E 3.71; L 3.16; H 2.78
F2: N 2.66; D 2.15; V 2.15; R 2.33; M 1.89; A 2.97; G 3.84; S 3.5; C 2.61; Y 2.68; T 2.61; E 4.07; L 2.85; Q 3.63; I 2.9; K 2.95; W 2.75
Y1: A 3.09; P 1.71; D 2.58; I 2.47; R 1.87; E 1.88; M 2.11; H 3.71; T 2.37; V 3.34; L 2.14; S 2.85; Q 3.55; W 2.82; C 1.94; N 2.23; F 2.3; K 3.54
V5: D 2.41; F 2.7; E 2.58; H 2.23; T 3.62; R 4.02; K 2.25; Y 4; A 2.25; P 3.14; G 1.47; S 1.43; Q 2.37; I 2.92; W 2.9; L 2.71; M 2.48; N 2.54; C 2.36
C4: M 2.81; W 3.23; S 3.14; N 3.42; K 2.45; P 2.44; E 1.28; H 2.37; Y 3.12; Q 1.44; R 2.25; A 2.47; T 1.74; I 2.84; V 3.69; F 4.64; G 2.21
Q6: D 2.65; I 1.91; G 2.47; K 3.15; C 3.44; T 2.38; R 2.65; V 1.79; F 2.07; E 3.62; L 2.53; A 1.97; Y 2.64; N 1.9; P 2.49; W 1.64; S 2.37

Variants of: B2
Test: as above
Conditions: c terminus: a fixed tail appended

Protein stability index of substitutions, site by site:
L10: H 3.82; T 4.36; F 3.42; K 3.8; W 2.86; Q 3.25
W22: E 5.52; V 4.21; P 4.92; F 3.83; T 5.07; C 3.63; L 4.8; D 5.66; G 5.31; H 4.79; N 5.45; I 4.49; Q 5.11; A 5.26; R 4.92
R9: N 3.66; Q 3.83; L 3.29; P 4.17; T 3.44; M 3.96; Y 2.41
R21: F 2.53; L 2.86; T 3.06; P 3.87; D 5.01; Q 4.18; Y 2.51; G 4.36; C 2.61; M 3.61; K 3.76; N 4.93; E 5.41; A 3.19; S 2.95; H 3.58; V 3.2; I 2.96
V18: F 2.31; E 4.54; G 4.29; Q 3.9; T 3.83; Y 3.37; K 2.9; W 2.22; M 4.78; P 3.31
V24: C 4.15; D 4.24; P 4.63; T 4.31; M 4.29; R 4.36; Y 3.51; E 4.13; A 4.61; G 4.61; N 5.33
E16: L 2.73; P 3.18; M 1.71; I 2.08; T 2.77; H 2.9; K 2.65; C 2.01; Q 3.22; R 2.12; D 3.74; Y 1.46; F 2.27; S 3.17
L11: K 4.37; R 4.2; T 4.11; D 4.9; C 3.25; A 4.29; M 3.14; Q 4.35; N 4.79; S 3.53; E 5.07; P 4.74
R12: W 2.33; S 3.75; P 4.61; F 2.88; N 3.87; C 2.99; Y 3.96; D 4; V 2.96; A 3.5; H 4.38; K 4.19; E 4.54
S13: H 2.53; P 4.71; Y 2.87; I 3.29; E 4.19; D 4.14; F 1.9; M 3.54; N 3.53; K 3.76; G 3.02; Q 2.09
E23: A 3.52; M 2.4; P 3.2; I 2.59; S 2.53; K 3.59; T 2.96; R 2.75; C 2.83; Y 2.56; L 2.29; Q 2.68; H 3.56; G 3.86
A15: H 3.88; D 4.09; R 2.99; Q 3.46; P 3.19; V 3.02; T 1.9; N 3.54; Y 3.51; G 3.97; F 2.57; L 3.58; S 3.22; W 2.93; E 4.36
S19: P 3.75; M 2.48; I 3.03; Y 2.08; F 2.73; H 3.18; G 3.54
D14: M 3.06; L 1.77; A 1.97; R 2.38; P 2.13; H 3.25; T 2.12; S 2.26; W 1.48; Y 1.45; N 2.75
A17: V 3.35; T 2.71; S 3.93; N 3.61; G 3.69; P 3.28; C 3.54; F 2.64
T20: S 3.32; N 3.28; P 2.15; H 2.22; M 2.26; K 3.85; R 3.29; A 4.18; I 2.12; F 2.74; E 3.99; Y 2.43; L 2.29; V 2.39; D 2.76; Q 3.34
